4 molecules from paper PMC10121161, “Delivering a toxic metal to the active site of urease” (Science Advances, 2023) can be followed below.

To fix the notation:
B1: HpUreF(R179A/Y183D)/HpUreD(E140A)-Strep complex, in the cryo-EM sample (complex)
chain 1: MDKGKSVKSTEKSVGMPPKTPKTDNNAHVDNEFLILQVNDAVFPIGSYTHSFGLETYIQQKKVTNKESALEYLKANLSSQFLYTEMLSLKLTYESALQQDLKKILGVEEVIMLSTSPMELRLANQKLGNRFIKTLQAMNELDMGEFFNAYAQKTKDPTHATSYGVFAASLGIELKKALAHYLDAQTSNMVINCVKSVPLSQNDGQKILLSLQSPFNQLIEKTLELDESHLCTASVQNDIKAMQHESLYSRLYMS
chain 2: MNTYAQESKLRLKTKIGADGRCVIEDNFFTPPFKLMAPFYPKDDLAEIMLLAVSPGMMRGDAQDVQLNIGPNCKLRITSQSFEKIHNTEDGFASRDMHIVVGENAFLDFAPFPLIPFENAHFKGNTTISLRSSSQLLYSAIIVAGRVARNELFKFNRLHTKISILQDEKPIYYDNTILDPKTTDLNNMCMFDGYTHYLNLVLVNCPIELSGVRECIEESEGVDGAVSETASSHLCVKALAKGSEPLLHLREKIARLVTQTTTQKV
notes: Helicobacter pylori urease accessory protein HpUreF; Helicobacter pylori urease accessory protein HpUreD (encoded by ureH); one copy of HpUreF and one of HpUreD per urease catalytic unit; also called HpUreFD
B2: HpUreD(E140A) with C-terminal Strep-tag II, in the cryo-EM sample (natural protein)
chain: B1 chain 2
notes: Helicobacter pylori urease accessory protein HpUreD (encoded by ureH); also called UreH
B3: HpUreF(R179A/Y183D), in the cryo-EM sample (natural protein)
chain: B1 chain 1
notes: Helicobacter pylori urease accessory protein HpUreF; everywhere else R179A/Y183D
B4: HpUreA (H. pylori urease subunit, fusion of the γ and β domains), in the cryo-EM sample (natural protein)
chain: MKLTPKELDKLMLHYAGELAKKRKEKGIKLNYVEAVALISAHIMEEARAGKKTAAELMQEGRTLLKPDDVMDGVASMIHEVGIEAMFPDGTKLVTVHTPIEANGKLVPGELFLKNEDITINEGKKAVSVKVKNVGDRPVQIGSHFHFFEVNRCLDFDREKTFGKRLDIASGTAVRFEPGEEKSVELIDIGGNRRIFGFNALVDRQADNESKKIALHRAKERGFHGAKSDDNYVKTIKE
notes: Helicobacter pylori urease subunit HpUreA (γ and β domains)

Assay in all cases: cryo-EM structure; HpUreFD/urease complex coexpressed in E. coli, purified by Strep-Tactin XT and Superose-6 SEC in 50 mM Hepes, 200 mM NaCl, 0.5 mM TCEP (pH 7.5); 0.5 mg/ml on grids; tetrahedral symmetry; 2.3 Å
Common to all, as to settings: both partners purified

Experiment [1] concerns the target T1, H. pylori urease (HpUreAB), in the cryo-EM sample (Helicobacter pylori, UniProt P14916 1-238; P69996 1-569).
T1 construct: Helicobacter pylori urease subunit HpUreA (γ and β domains); Helicobacter pylori urease subunit HpUreB (α domain); dodecamer of HpUreAB catalytic units (four trimers); copies: 12 + 12

For experiment [2], the target named is T2, HpUreB (H. pylori urease subunit, α domain), in the cryo-EM sample (Helicobacter pylori, UniProt P69996 1-569).
T2 construct: Helicobacter pylori urease subunit HpUreB (α domain)
T2 sequence (P69996 whole entry): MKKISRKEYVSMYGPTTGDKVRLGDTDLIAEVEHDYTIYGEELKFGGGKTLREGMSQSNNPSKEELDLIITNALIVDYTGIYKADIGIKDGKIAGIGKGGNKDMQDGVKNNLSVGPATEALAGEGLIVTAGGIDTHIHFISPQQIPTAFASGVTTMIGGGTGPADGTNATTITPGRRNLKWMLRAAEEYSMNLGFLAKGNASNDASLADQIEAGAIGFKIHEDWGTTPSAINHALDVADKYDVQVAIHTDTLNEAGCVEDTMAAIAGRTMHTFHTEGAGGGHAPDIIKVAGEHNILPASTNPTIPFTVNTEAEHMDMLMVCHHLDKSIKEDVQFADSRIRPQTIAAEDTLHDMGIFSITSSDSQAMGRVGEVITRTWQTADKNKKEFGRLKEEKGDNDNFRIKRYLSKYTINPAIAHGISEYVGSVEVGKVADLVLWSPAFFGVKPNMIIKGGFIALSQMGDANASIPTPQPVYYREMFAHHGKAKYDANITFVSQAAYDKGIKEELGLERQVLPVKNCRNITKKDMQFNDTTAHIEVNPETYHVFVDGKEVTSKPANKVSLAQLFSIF

In experiment [3] the target is B2.

T1 sequence (P69996 whole entry, one chain of several): as the sequence (P69996 whole entry) above

In the case of B1, the binding result in experiment [1] was “binds”. Take B2: the binding result in experiment [2] is on record as “binds”. For B3, the binding result in experiment [3] was “binds”. With B4, the binding result in experiment [3] and in experiment [2] was “binds” each time.
